The values below come from patent publication US20230159643A1 (H LUNDBECK A S, published 2023).

Experiment [1] concerns the target T1, human wild type Sortilin on S18-HEK cells (human, UniProt Q99523 78-831).
T1 sequence: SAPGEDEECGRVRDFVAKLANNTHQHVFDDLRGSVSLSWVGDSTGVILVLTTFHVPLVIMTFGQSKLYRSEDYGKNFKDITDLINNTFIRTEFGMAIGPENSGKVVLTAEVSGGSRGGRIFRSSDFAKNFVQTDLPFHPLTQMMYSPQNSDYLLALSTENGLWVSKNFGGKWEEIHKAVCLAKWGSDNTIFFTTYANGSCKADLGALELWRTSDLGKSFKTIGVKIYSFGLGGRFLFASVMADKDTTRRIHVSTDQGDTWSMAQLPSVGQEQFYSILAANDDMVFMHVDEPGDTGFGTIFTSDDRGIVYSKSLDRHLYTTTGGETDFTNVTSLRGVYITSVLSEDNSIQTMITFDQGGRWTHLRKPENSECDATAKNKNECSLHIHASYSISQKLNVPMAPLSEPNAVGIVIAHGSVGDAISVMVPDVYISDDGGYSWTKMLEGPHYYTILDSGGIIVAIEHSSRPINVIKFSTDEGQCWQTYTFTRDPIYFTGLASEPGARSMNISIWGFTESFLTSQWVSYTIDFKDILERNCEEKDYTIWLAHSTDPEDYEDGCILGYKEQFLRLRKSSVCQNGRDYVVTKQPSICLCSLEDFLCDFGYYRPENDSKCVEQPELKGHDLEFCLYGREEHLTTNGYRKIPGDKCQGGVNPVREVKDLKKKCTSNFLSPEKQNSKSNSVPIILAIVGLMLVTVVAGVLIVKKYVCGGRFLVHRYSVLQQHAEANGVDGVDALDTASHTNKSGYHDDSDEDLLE
Kind of experiment: cell-based or functional assay.

In experiment [2] the target is T2, Sortilin SORTECDBAP_hB12390 (human/tetraodon chimera).
T2 construct: Shuffle construct
T2 chain: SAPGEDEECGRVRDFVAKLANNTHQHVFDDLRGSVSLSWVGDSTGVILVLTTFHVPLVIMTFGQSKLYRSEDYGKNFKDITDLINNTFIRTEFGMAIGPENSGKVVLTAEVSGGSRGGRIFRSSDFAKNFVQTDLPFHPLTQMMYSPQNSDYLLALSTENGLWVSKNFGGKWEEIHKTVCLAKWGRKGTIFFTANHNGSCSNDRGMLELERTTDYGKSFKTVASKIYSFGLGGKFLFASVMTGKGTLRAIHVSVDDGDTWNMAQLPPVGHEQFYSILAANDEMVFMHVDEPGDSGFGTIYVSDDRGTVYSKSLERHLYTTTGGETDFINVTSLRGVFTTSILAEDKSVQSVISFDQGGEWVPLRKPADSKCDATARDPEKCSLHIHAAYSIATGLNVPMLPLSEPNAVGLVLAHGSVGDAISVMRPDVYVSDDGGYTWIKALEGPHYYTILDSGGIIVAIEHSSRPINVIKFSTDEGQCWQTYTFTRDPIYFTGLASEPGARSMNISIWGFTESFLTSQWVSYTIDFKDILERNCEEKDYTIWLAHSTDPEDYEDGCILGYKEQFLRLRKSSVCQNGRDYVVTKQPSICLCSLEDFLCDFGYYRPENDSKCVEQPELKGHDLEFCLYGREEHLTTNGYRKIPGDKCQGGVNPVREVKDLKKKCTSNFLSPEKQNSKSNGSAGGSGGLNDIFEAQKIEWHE
Kind of experiment: BLI Octet 384RED (Example 8), Sortilin construct in solution. As for the experimental part:
(§1) Binding kinetics of anti-Sortilin HuMab antibodies to Sortilin were determined using Octet 384RED (Fortebio, Menlo Park, USA). HuMab solutions of 2 μg/ml were made by dilution in sample diluent (ForteBio, art. No. 18-5028). Prot A sensors (ForteBio, art. no. 18-0004) were prewetted with kinetics buffer (1:10 sample diluent in PBS) for at least 600 seconds. Subsequently sensors were immobilized with HuMab solution for 600 seconds. A baseline response was obtained by dipping in kinetics buffer for 120 seconds. Association of SORTECD constructs was performed during a 1000 seconds incubation. This was followed by dissociation in kinetics buffer for 100 seconds. After dissociation, sensors were regenerated (10 mM Glycine pH 1.0) and neutralized (kinetics buffer) 3 times for 5 seconds. […] A molecular weight of 76.8 kDA was used for SORTECDHis. Data was fitted with ForteBio Analysis 6.4 software, using a global full fit.

The target of experiment [3] is T3, Sortilin SORTECDBAP_hB06-10 (human/tetraodon chimera).
T3 construct: Shuffle construct
T3 chain: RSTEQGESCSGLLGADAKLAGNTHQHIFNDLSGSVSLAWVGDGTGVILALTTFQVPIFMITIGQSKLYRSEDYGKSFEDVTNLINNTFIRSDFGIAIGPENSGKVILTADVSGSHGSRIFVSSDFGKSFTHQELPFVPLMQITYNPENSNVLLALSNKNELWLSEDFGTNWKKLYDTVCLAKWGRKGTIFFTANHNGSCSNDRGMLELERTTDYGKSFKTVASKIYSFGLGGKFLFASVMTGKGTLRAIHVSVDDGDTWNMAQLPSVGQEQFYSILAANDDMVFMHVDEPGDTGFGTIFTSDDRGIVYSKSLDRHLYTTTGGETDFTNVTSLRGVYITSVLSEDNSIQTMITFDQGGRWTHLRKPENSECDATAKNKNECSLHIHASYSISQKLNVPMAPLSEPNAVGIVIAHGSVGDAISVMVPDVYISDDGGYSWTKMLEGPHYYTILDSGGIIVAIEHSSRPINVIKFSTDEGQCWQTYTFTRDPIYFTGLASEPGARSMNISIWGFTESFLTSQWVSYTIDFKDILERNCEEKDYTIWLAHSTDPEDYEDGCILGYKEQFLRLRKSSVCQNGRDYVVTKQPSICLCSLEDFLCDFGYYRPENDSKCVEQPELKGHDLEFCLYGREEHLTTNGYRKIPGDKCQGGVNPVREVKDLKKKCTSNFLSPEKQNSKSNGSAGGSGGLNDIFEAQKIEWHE
Described as above. As for the experimental part:
as §1

B1: Antibody 5E1 (antibody, V domains shown)
VH: EVHLVESGGDLVNPGGSLKLSCEASGFIFSIYGMSWVRQTPDKRLEWVAMISSGGIYTQYPDSVKGRFTISRDNAKNTLYLQMSGLKSEDTGTYHCTRHDDSWFAYWGQGTLVTVSA
VL: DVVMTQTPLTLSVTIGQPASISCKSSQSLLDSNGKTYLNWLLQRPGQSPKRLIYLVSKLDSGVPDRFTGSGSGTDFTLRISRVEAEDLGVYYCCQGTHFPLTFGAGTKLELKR
notes: Mouse anti-human Sortilin monoclonal antibody from hybridoma (BALB/c), purified on protein G; Assigned to the D Region; also called 5E1F6; Ab 5E1
B1: in experiment [1], the “extracellular PGRN in medium of Sortilin over-expressing HEK cells (ELISA), % of untreated control” value (from here on “extracellular PGRN … % of untreated control”) is 177%. The EC50 in experiment [2] was 0.59 ng/mL; in experiment [3], 0.72 ng/mL.

B2: 1320 (antibody, V domains shown)
VH: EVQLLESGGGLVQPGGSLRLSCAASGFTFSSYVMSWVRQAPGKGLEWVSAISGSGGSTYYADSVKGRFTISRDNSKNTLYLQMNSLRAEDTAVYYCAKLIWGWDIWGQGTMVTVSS
VL: EIVLTQSPATLSLSPGERATLSCRASQSVSSYLAWYQQRPGQAPRLLIYDASNRATGIPARFSGSGSGTDFTLSISSLEPEDFAVYYCQQRTNWSITFGQGTRLEIK
notes: also called IgG1-6003-1320; Antibody 1320
Take B2: the “extracellular PGRN … % of untreated control” value in experiment [1] came out at 114%.

B3: Antibody 1F2 (antibody, V domains shown)
VH: EVQLVESGGDLVKPGGSLKLSCAASGFTFSSYGMSWVRQTPDKRLEWVAIISSGGSYTHYPDSVKGRFTISRDNAKNTLYLQMSSLKSEDTAMYYCARLCGPLCSGYWGQGTSVTVSS
VL: QAVVTQESALTTSPGETVTLTCRSSTGAVTTSNYANWVQEKPDHLFTGLIGGTNNRAPGVPARFSGSLIGDKAALTITGAQTEDEAIYFCALWYSNHFWVFGGGTKLTVLG
notes: Mouse anti-human Sortilin monoclonal antibody from hybridoma (BALB/c), purified on protein G; Assigned to the D Region; also called 1F2F4; Ab 1F2
With B3, in experiment [1], the “extracellular PGRN … % of untreated control” value turned out to be 282%. For the same molecule, the results for the EC50 in experiment [2] and in experiment [3] were 1.1 ng/mL and 9.6 ng/mL, respectively.
